The values that follow come from doi:10.1101/856021 (2019).

The target of this test is Jil-1 peptide 984-1004 F989A (Drosophila, UniProt Q9V3I5 984-994, F989A). Description: ITC.

B1: dP75 IBD-containing C-terminus region (residues 209-445) (domain or fragment)
chain: AAVTPIQKRSRPVNNIRNEMLMVYMPTAKCLGIVINYKKPESFESAAAEEAWMENARKEALELKLKLESGQINPESMPDRIVVEPTRSEIPKQEALRFIEELIEHEDALFMERDFIQLSQQLRECLGLRRANVGKCLEILEQFKEVEFTKLMLLRNPECVDIMRRLRRYVGNLELWKMDLSDEVEFKERAQTIRKVSSGIYDGFKSLFNPEPESEDNFWIDFCEKVKIYKTYTKNIN
For B1, the Kd came out at 122 µM.

As usually defined, the Kd is the concentration at which binding is half-saturated.
